{"source": "paper PMC9157036", "biological_target": "ferritin-based 24-meric nanoparticle with N-terminal protein A tag", "test": "SPR", "conditions": "Fc fusion", "data": [{"substance": "RBD (residues 331aa-524aa) of the SARS-CoV-2 Omicron spike protein with an Fc tag in the C-terminus (from UniProt P0DTC2 331-524)", "values": [{"measurement": "Kd", "value": 187, "unit": "nM"}]}]}
